This data set is described as follows: yeast display, Sf9 membrane polyspecificity reagent, FACS + sequencing; frameworks hold sequencing errors. The method in brief:
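A synthetic nanobody library was expressed on Saccharomyces cerevisiae BJ5465 by galactose induction for 36–48 hours. The library was stained for 1 hour at 4 °C with 10% biotinylated, detergent-solubilized Sf9 membrane reagent and enriched with streptavidin microbeads before FACS. Low and high (top ~1%) gates were set on anti-HA fluorescence for expression and streptavidin fluorescence for reagent binding, and each polyreactivity label reflects the gate of origin.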
With “QVQLEESGGGVVQAGGSLRLTCAASASTSYNMGWYTQAPGKERELVAAISYPGGRTYYADSVKGRFTISRDNAKNTVYLQMTCLKPDDTGVYYCAKRIFVTFDSWGQGTQVTVSS”, the “polyreactivity (PSR sort gate)” value is “low polyreactivity”.
To “QVQLVESGGGLVQAGGSLRLSCAASGIIFHIYAMGWYRQAPGTERELVAAISTGSSTYYADSVKGRFTISRDNAKNTVYLQMNSLKPEDTAVYYCNAVSRYLWVKGFDYWGQGTQVTVSS” belongs “low polyreactivity”.
“QVQLVESGGGLVQAGGSLRLSCAASGRIFGRNAMGWYRQAPGKERELVAAISSSGGTYYADSVKGRFTISRDNAKNTVYLQMNSLKPEDTAVYYCNARVRTQQRWVDYWGQGTQVTVSS”: the “polyreactivity (PSR sort gate)” value is on record as “high polyreactivity”.
To “QVQLVESGGGLVQAGGSLRLSCAASGIFRRYAMGWYRQAPGKERELVAAISSSGGSTDYADSVKGRFTISRDNAKNTVYLQMNSLKPEDTAVYYCNAYDQHGWWSYAYDYWGQGTQVTVSS” belongs “high polyreactivity”; to “QVQLVESGGGLVQAGGSLRLSCAASGFTFHYYTMGWYRQAPGKERELVASINYSGGRTYYADSVKGRFTISRDNAKNTVYLQMNSLKPEDTAVYYCNARYKSTYYYWGLGTQVTVSS”, “high polyreactivity”.
As for “QVQLVESGGGLVQAGGSLRLSCAASGSTFFYYAMGLYRQAPGKERELVADITSSGGRTYYADSVKGRFTISRDNAKNTVYLQMNSLKPEDTAVYYCAARDYRQSRYEYWGQGTQVTVSS”, the “polyreactivity (PSR sort gate)” value is “high polyreactivity”.
In the case of “QVHLVESVGGLVQAGGSLRLSCAASGIIFNDYAMGWYRQAPGKERELVATISWSGGSTYADSVKGRFTISRDNAKNTVYLQMNSLNPEDTAVYYCNADLGSSYDWGQGTQGTVSS” it was “low polyreactivity”.
“QVQLVESGGGLVQAGGSLRLSCAASGSILLINAMGWYRQAPGKERELVAAIRTGGSTYYADSVKGRFTISRDNAKNTVYLQMNSLKPEDTAVYYCAVRTGRRWWKFDYWGQGTQVTVSS”: the “polyreactivity (PSR sort gate)” value is reported as “low polyreactivity”.
To “QVQLVESGGGLVQAGGSLRLSCAASGRIFQGYAMGWYRQAPGKERELVARITSGSNTNYADSVKGRFTISRDNAKNTVYLQMNSLKPEDTAVYYCAKEPVGSVRYGRFQQDDYWGQGTQVTVSS” belongs “low polyreactivity”.
To “QVQLVESGGGLVQAGGSLSLSCAASGFTFAKYAMGWYRQAPGKERELVATISWSGGTTSYADSVKGRFTISRDNAKNTVYLQMNSLKPEDTAVYYCAALRYADYDYWGQGTQVTVSS” belongs “high polyreactivity”.
“QVQIVESGGGLVQAGGSLRLSCAASGSTFKRYAMGWYRQAPGKERELVAAITWRGGSTYYADSVKGRFTISRDNAKNTVYLQMNSLKPEDTAVYYCAARANYFGWPKSYYYWGQGTQVTVSS”: the “polyreactivity (PSR sort gate)” value is recorded as “high polyreactivity”.
To “QVQLVESGGGLVQAGGSLRLSCAASGFIFVTNVMGWYRQAPGKERELVAAISRRGTNTYYADSVKGRFTISRDNAKNTVYLQMNSLKPEDTAVYYCNKLVFHTGGFRYDYWGQGTQVTVSS” belongs “high polyreactivity”; to “QVQLVESGGGIVQAGGSLRLSCAASGIIFGYYAMGWYRQAPGKERELVAAISRRGGSTYYADSVKGRFTISRDNATITVYLQMHSLKPEDSAVSYCAAVELRLSTPDMESWVQGTQVTVSS”, “high polyreactivity”; to “QVQLVESVGGLVQAGGSLRLSCAASGRILYLNVMGWYRQAPGKERELVASITVSGGITYYADSVKGRFTISRDNAKNTVYLQMNSLKPEDTAVYYCAVDAYPPFFYFTSVWFSYDYWGQGTQVTVSS”, “low polyreactivity”.
In the case of “QVQLVESGGGLVQAGGSLRLSCAASGRTFYYYAMGWYRQAPGKERELVAAITSGGSTKYADSVKGRFTISRDNAKNTVYLQMNSLKPEDTAVYYCAKRYFSSSRYYYWGQGTQVTVSS” it was “high polyreactivity”.
In the case of “QVQLVESGGGLVQAGGSLRLSCAASGRIFTGYDMGWYRQAPGKERELVAAISRGGSTNYADSVKGRFTISRDNAKNTVYLQMNSLKPEDTAVYYCADGVHWDRGDYWVQGTQVTVSS” it was “low polyreactivity”; in that of “QVQLVESGGGLVQAGGSLRLSCAASGRIFGLYAMGWYRQAPGKERELVAGITYSGGTTYYADSVKGRFTISRDNAKNTVYLQMNSLKPEDTAVYYCNKRWYYQYGKYGYWGQGTQVTVSS”, “high polyreactivity”; in that of “QVQLVESGGGLVQAGGSLRLSCAASGSIFRYYAMGWYRQAPGKERELVAAITRRGGSTYYADSVKGRFTISRDNAKNTVYLQMNSLKPEDTAVYYCAASHGYQYEYWGQGTQVTVSS”, “high polyreactivity”.
For the sequence “QVQLVESGGGLVQAGGSLRLSCAASGSIFYSYAMGWYIQAPGKERELVAVISSGGRTNYADSVKGRFTISRDNAKNTVYLQMNSLKPEDTAVYYCAARNYLYRYARAYDYWGQGTQVTVSS”, the “polyreactivity (PSR sort gate)” value is given as “high polyreactivity”.
In the case of “QVQLVESGGGLVQAGGSLRLSCDASGFIFGYYAMGWYRHAPGKERELVAAISRGDTSTYYADSVKGRFTISRDNAKNTVYLQMYSLKPEDTAVYYCAADWTGYGYYYWGQGTQVTVSS” it was “low polyreactivity”; in that of “QVQLGESGGVLVQAGGSLRLSCAASGRIFSENAMGWYRQATGKEWELVAAITGNGGDTYYADSVKGRFTISRDTAKNTVYLQMNSLKPEDTAVYYCAAETGGLGGDYWGQGTQVTVSS”, “low polyreactivity”; in that of “QVQLVESGGGLVQAGGSLRLSCAASGSIFVTYAMGSYRQAPGKERELVAAITSIGGTTYYSDSVKGRFTISRDNAKNTVYLQMNSLKPEDTAVYYCAVDGGEFSSYGYWGQGTEVTVSS”, “low polyreactivity”.
In the case of “QVQLVDSGGGLVQAGGSLRLSCAASGSTFRLYAMGWYRQAPGKERELVAAISQRGGSTYYADSVKGRFTISRDNAKNTVYLQKNSLKPEDTAVYYCNTDWYRKWGKPYYYWGQGTQVTVSS”, the “polyreactivity (PSR sort gate)” value is “high polyreactivity”.
To “QVQLVESGGGLVQAGGSLRLSCAASGRTFGYYARGWYRQAPGKERELVADISSGGSTSYADSVKGRFTISRDNAKNTVYLQMNSLKPEDTAVYYCAADSHQNFSGWLRWPRMDYWGQGSQVTVSS” belongs “low polyreactivity”; to “QVQLVESGGGLVQAGGSLRLSCAASGRTFWANAMGWYRQAPGKERELVAAITIDGRTSYADSVKGRFTISRDNAKNTVYLQMNSLKPEDTAVYYCATEPFYTYGYYTYPYWYDYWGQGTQVTVSS”, “low polyreactivity”; to “QVQLVESGGGLVQAGGSLRLSCAASGRIFSVYTMGWYRKAPGKERELVATISSGGRTNYADSVKGRFTISRDNAKNTVYLQMNSLKPEDTAVYYCAAVPYGFVGYDDYWGQGTQVTVSS”, “low polyreactivity”.
In the case of “QVQLVESGGGLVQAGGSLRLSCAASGSIFSYYAMGWYRQEPGKERELVAAITWSGTRTYYADSVKGRFTISRDNAKNTVYLQMISLKPEDTAVYYCATEYDYWDDSYDSWGLGTQVTVSS” it was “low polyreactivity”.
For “QVQLVESGGGLVQAGGSLRLSCAASGSTFAYNTMGWYRKAPGKERELVAAITQLGGSTYADSVKGRFTISRDNAKNTVYLQINSLKPEENAVYYCAADGYTYKFDYWGQGTQVTVSS”, the “polyreactivity (PSR sort gate)” value is recorded as “low polyreactivity”.
Take “QVQLVESGGGLVQAGGSLRLSCAASGSIFTGYAMGWSRQAPGKEREMLAAISWSGGSTSYADSVKGRFTISRDNAKNTVYLQMNSLKPEDTAVYYCSTDVRQGSGWRYYYWGQGTQVTVSS”: the “polyreactivity (PSR sort gate)” value was “high polyreactivity”.
In the case of “QFQLVESVGGLVQAGGSLRLSCAASGFTFPSYAMGWYRQAPGKERELVAAISYRGGRTYYADSVKWRFTISRDNAKNTVYLQMNSLKPEDTAVYYCNALFATVPPWGFDYWGQGTQVTVSS” it was “high polyreactivity”; in that of “QVQLVESGGGLVQAGGSLRLSCAASGITFPYYALGWYRQAPGKERELVARISRGGRTNYADSVKGRFTISRDNAKNTVYLQMNSLKPEDTAVYYCNAGYTYYKYGYWGQGTQVTVSS”, “high polyreactivity”.
On to “QVQLQESGGDLVQAGGSLRLSCAASGTIYGLTSMGSYRQRPGKEREFVAAITDGGNTNYADSVKGRFTISRDNAKNTVYLQMISLKPDETAVYYWAVLFSDDAYYAYWGQGTQVTVSS”, for which the “polyreactivity (PSR sort gate)” value is “low polyreactivity”.
With “QVQVVESGGGLVQAGGSLRLSCAASGYIINQYTMGWYRQAPGKERELVADNSSGGSTTYADSVKGRFTISRDNAKNTVYLQMNSLKTEHTAVYYCNAEYDSGSPTAYDWEYDYWGHGTQVTVSS”, the “polyreactivity (PSR sort gate)” value is “high polyreactivity”.
In the case of “QVQLVESGGGLVQAGGSLRLSCAASGRTFYYNTMGWYRQAPWKEWELVAAISWRTGSTYYADSVKGRFSISRDNAKNTVYLQMKSLKPEDTAVYYCAAVLFGYPRTIGTWYDRYYYWGQGTQVTVSS” it was “high polyreactivity”; in that of “QVQLVESRGGLVQAGGSLRLSCAASGSTFRTNTMGWSRQAPGKEREVVADISWSGGSTDYADSVKGRFTISRDNAKNTVYLQMNSLKPEDTAVYFCAKDGAFWTYYSWYDYWGQGTQVTVSS”, “low polyreactivity”; in that of “QVQLVESGGGLVQAGGSLRLSGAASGFISFPYAMGWDTQATGKERELVASITRSGGNTYYADSVKGRFTISRDNEKNTVYLQMNSLKPEDTAVYYCNAQIYTYRSGRGYSRMDYWGEGTQVTVSS”, “high polyreactivity”.
On to “QVQLVESGGGLVQAGGSLRLSCAASGSIFLDNAKGWYRQAPGKERELVSAISSGGNTNYADSVKGRFTISRDNAKNTVSLQMNSLKPEDTAVYYCAADPTKWHYYVPRYYYWGQGTQVTVSS”, for which the “polyreactivity (PSR sort gate)” value was “low polyreactivity”.
To “QVQIVESGGGLVQAGGSLSLSCADYGSTFYHNVMGWYRQAPGKERELVASIDTGDSTNYADSVKGRFTISRDNAKNTVYLQMNSLKPEYTAVYYCNADSYPALNKRGYDYWGQGTQVTVSS” belongs “low polyreactivity”; to “QVQLVESGGGLVQAGGSLRISCAASGSTFRRYAMGWYRQAPGKEREFVAVITSSGVITYYADSVKGRFTISRDNAKNTVYLQMNSLKPEDTAVYYCATDARSMDYWGQGTQVTVSS”, “low polyreactivity”.
In the case of “QVQLVESGGGLVQAGGSLRLSCAASGSIFNPNAMGWYRQAPGKERELLAAIDSGGTTDYADSVKGRFTISRDNAKNTVYLQMNSLKPEVTAVYYCNADRTVTSSSFTDYDYWGQGTQVTVSS” it was “high polyreactivity”.
To “QVQLVESGGGLVQAGGSLRLSCAASGFIFGGNVMGWYRQAPGKEREFVAAITDGDGSTYYADSVKGRFTISRDNAKNTVYLQMNSLKPEDTAVYYCAADVYYADVYPVEYWGQGTQVTVSS” belongs “high polyreactivity”.

The record behind these values is the nanobody polyreactivity screen of Harvey et al. (2022).
